Results taken from the supplement of paper PMC10567573.

B1: PTPRD (parent)
chain: FICQATGDPRPKIVWNKKGKKVSN
B2: KRT13 (parent)
chain: TPGIDLTRVLAEMREQYEAMAERN

Variants of: B1
Experiment: protein stability index of a GFP-peptide fusion (GPS, HEK-293T) (PSI 1-6); higher = more stable
Details: c terminus: a fixed tail appended
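Further: lentivirally expressed fusions sorted by FACS into six bins by GFP to DsRed ratio, PSI derived from sequencing read proportions per bin multiplied by bin number.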

Protein stability index, by site and new letter:
K17: L 1.78, G 1.77, Y 1.68
V14: S 2.27, W 2.18, R 1.78, G 2, H 2.27, Q 2.01, P 2.21, Y 1.59, F 3.73, A 2.23, M 1.67, D 2.35, N 1.73, I 2.23
C3: K 2.57, W 1.97, H 2.56, Y 1.15, N 1.88, Q 2.05, R 2.06, D 2.85, M 1.75, I 2.38
N24: E 2.37, H 2.17, R 3.04, L 1.44, Q 2.02, V 2.33, M 1.4, T 1.65, S 2.03, G 2.22, Y 2.08, C 2.23, K 1.85, W 1.92, A 1.97
I2: E 4.52, A 2.67, N 4.27, R 3.57, D 4.73, K 3.47, M 3.44, C 2.29, Q 2.83, W 2.95
W15: P 2.56, I 2.26, N 2.53, G 2.26, F 2.5, K 2.12, H 2.15, M 2.9, L 2.16, T 2.85, A 2.48
T6: D 1.71, M 1.65, I 1.61, C 2.81, V 1.91, E 2.05, Y 2.24, A 1.92, F 1.68
K20: W 1.76, V 1.44, R 2.39, A 1.82, T 1.69, I 1.88, C 1.17, H 2.71, P 2, E 1.78, L 1.96, N 1.77
K18: C 1.72, N 1.98, V 1.45, T 1.51, Y 1.94, Q 1.74, I 1.24, M 1.46, R 2.2, F 1.38, A 1.93
S23: K 2.52, I 1.84, M 2.29, D 2.52, G 2.28, Q 2.07, W 2.28, P 2.15, E 2.72, L 2.14, N 2.12, T 2.59
V22: Q 2.47, D 2.86, T 2.29, R 2.04, S 2.41, M 2.35, W 2.35, I 2.17, K 2.66, F 2.4, E 2.34, L 2.36, G 2.58

Variants of: B2
Experiment: as above
Details: c terminus: a fixed tail appended

Protein stability index, by site and new letter:
E22: L 4.4, T 3.87, K 4.39, M 4.03, N 4.04, S 3.52, I 2.79, Y 3, V 2.56, P 3.98, W 2.86
N24: H 4.79, G 4.87, C 3.08, K 3.27, Q 4.23, F 4, W 4.55, M 4.67, Y 3.8, S 4.51, L 4.83, T 4.22, I 4.63, E 4.51, A 3.56, P 4.07, D 5.03
R23: L 3.34, T 4.08, P 4.62, F 3.78, Y 3.61, C 4.43, W 2.83, I 2.94, G 3.98, M 3.27, V 3.01, N 4.59, A 3.9, Q 4.39, H 4.21, E 4.9, K 4.03, D 4.84, S 4.56
